Values belong to the binder of their own block, whether it stands above or below them.
How the values were obtained:
[1] = molecular target: T1, Human-TNFR2-His (manufacturer: SINO, CAT: 10417-H08H) (human, UniProt P20333 23-257); test: flow cytometry, bridging: CHOK1-18.2 cells (human Claudin18.2) + 150 nM antibody + human TNFR2-His, anti-His FITC detection
T1 construct: Bought protein; also called human TNFR2 protein; TNFR2 protein; not shown: His tag
T1 sequence (looked up): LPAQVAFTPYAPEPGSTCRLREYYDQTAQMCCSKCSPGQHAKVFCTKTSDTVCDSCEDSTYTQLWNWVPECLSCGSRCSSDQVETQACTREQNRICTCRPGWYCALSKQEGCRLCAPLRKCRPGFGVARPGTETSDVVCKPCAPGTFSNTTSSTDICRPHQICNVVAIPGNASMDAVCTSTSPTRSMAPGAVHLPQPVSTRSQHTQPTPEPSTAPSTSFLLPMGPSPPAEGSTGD
Protocol: Human TNFR2 protein (SINO, CAT: 10417-H08H) was sequentially added into 96-well plate with 100 μL/well, and after mixing, the 96-well plate was incubated at 4° C. for 1 h. Pre-cooled dilution was added and washed once, centrifuged (3000 rpm, 3 min), and the supernatant was discarded, and the cells were harvested. Fluorescent secondary antibody Anti-6X-his tag antibody (FITC) (manufacturer: abcam, Cat. No.: ab1206, Lot No.: GR3420599-3) was taken and diluted at the used concentration of 1:500. 100 μL of dilution was added to the blank control group, and 100 μL of fluorescent secondary antibody dilution was added to the rest of the sample groups respectively. After incubation for 0.5 h at room temperature and 4° C. protected from light, PBS was added to wash and centrifuged (3000 rpm, 3 min) twice. After discarding the supernatant, 80 μL of the dilution was added and resuspended.

[2] = molecular target: T1, Human-TNFR2-His (manufacturer: SINO, …); test: ELISA: Human-TNFR2-His coated (0.3 µg/mL), antibody titrated, goat anti-human IgG Fc detection, OD450 (Example 2)
Protocol: Human-TNFR2-His (manufacturer: SINO, CAT: 10417-H08H, LOT: LC15NO0412) was diluted to 0.3 μg/mL with a coating solution (1×PBS, pH7.4), and coated into a 96-well ELISA plate at 100 μL/well overnight at 4° C. The coating solution was poured off. Each well was washed with 1×PBST at 300 μL, washed 4 times with a plate washer, and patted dry on a flat paper. It was blocked with 3% skim milk powder at 300 μL/well, and incubated at 37° C. for 1 h. The blocking solution was poured off, washed 4 times with a plate washer, and patted dry on a flat paper. Negative control and positive control were set up. […] The positive control and antibody were diluted to 10 μg/mL with 3% skim milk powder as the starting concentration, and then diluted by 3-fold gradient (11 gradients in total). A blank well was set up and only the diluent was added. It was incubated at 37° C. for 1 h at 100 μL/well. The liquid in the well was discarded, washed 4 times with a plate washer, and patted dry on a flat paper. Goat anti-human IgG Fc was diluted with 3% skim milk powder at 1:20000, and incubated at 37° C. for 1 h at 100 μL/well. It was washed 6 times with a plate washer, and patted dry on a flat paper. TMB color developing solution was added at 100 μL/well, and wrapped with aluminum foil. Color development was performed at 37° C. in the dark for 8 min. Termination solution 1M HCl was added to terminate the color development reaction at 100 μL/well. Readings were taken at 450 nm on an ELISA reader.

[3] = molecular target: T2, Human-B7H3 His (manufacturer: Acro, CAT: TB73-H52E2) (human, UniProt Q5ZPR3-2 29-245); test: ELISA: Human-B7H3 His coated (0.3 µg/mL), antibody titrated, goat anti-human IgG Fc detection, OD450 (Example 3)
T2 construct: also called human B7H3 protein; B7H3 protein; not shown: His tag
T2 sequence (looked up): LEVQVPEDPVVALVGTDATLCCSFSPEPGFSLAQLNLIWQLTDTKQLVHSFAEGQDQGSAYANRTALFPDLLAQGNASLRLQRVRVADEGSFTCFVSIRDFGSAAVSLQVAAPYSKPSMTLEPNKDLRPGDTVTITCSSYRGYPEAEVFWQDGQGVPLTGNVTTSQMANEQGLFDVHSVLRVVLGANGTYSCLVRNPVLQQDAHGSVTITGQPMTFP
Protocol: Human-B7H3 His (manufacturer: Acro, CAT: TB73-H52E2, LOT: 2052-21AXF1-YS) was diluted to 0.3 μg/mL with a coating solution (1×PBS, pH7.4), and coated into a 96-well ELISA plate at 100 μL/well overnight at 4° C. The coating solution was poured off. Each well was washed with 1×PBST at 300 μL, washed 4 times with a plate washer, and patted dry on a flat paper. It was blocked with 3% skim milk powder at 300 μL/well, and incubated at 37° C. for 1 h. The blocking solution was poured off, washed 4 times with a plate washer, and patted dry on a flat paper. Negative control and positive control were set up. […] The variable region of the antibody sequence of the positive control consists of SEQ ID NO: 1 and SEQ ID NO: 5, with the constant region of human IgG1 added (SEQ ID NO: 85 and SEQ ID NO: 86). The positive control and antibody were diluted to 10 μg/mL with 3% skim milk powder as the starting concentration, and then diluted by 3-fold gradient (11 gradients in total). A blank well was set up and only the diluent was added. It was incubated at 37° C. for 1 h at 100 μL/well. The liquid in the well was discarded, washed 4 times with a plate washer, and patted dry on a flat paper. Goat anti-human IgG Fc was diluted with 3% skim milk powder at 1:20000, and incubated at 37° C. for 1 h at 100 μL/well. It was washed 6 times with a plate washer, and patted dry on a flat paper. TMB color developing solution was added at 100 μL/well, and wrapped with aluminum foil. Color development was performed at 37° C. in the dark for 8 min. Termination solution 1M HCl was added to terminate the color development reaction at 100 μL/well. Readings were taken at 450 nm on an ELISA reader.

[4] = molecular target: T2, Human-B7H3 His (manufacturer: Acro, …); test: BLI, antibody on AHC sensor, 100 nM His-tagged protein (Acro TB73-H52E2) in solution
[5] = molecular target: T1, Human-TNFR2-His (manufacturer: SINO, …); test: BLI, antibody on AHC sensor, 100 nM human-TNFR2-His in solution
Protocol: The AHC sensor was soaked in 0.02% PBST (0.02% Tween 20, pH 7.4, 1×PBS) as a buffer for 600 s to remove the sucrose covering the sensor surface. The AHC sensor was equilibrated with 0.02% PBST (0.02% Tween 20, pH 7.4, 1×PBS) as a buffer for 60 s, the antibody in the sample plate was solidified for 300 s, and the secondary equilibration buffer was used for 180 s. 100 nM human-TNFR2-His (manufacturer: SINO, CAT: 10417-H08H, LOT: LC12SE2902) protein was bound to the antibody for 300 s and then dissociated for 600 s. After dissociation, 10 mM glycine (pH 2.0) was used as a regeneration buffer for 30 s. The sensor was regenerated with 10 mM glycine (pH 2.0).

B5: TB-A2 (bispecific antibody, human IgG4 S228P, kappa)
light: DIVMTQSPATLSVTPGDRVSLSCRASQSISDYLHWYQQKSHESPRLLIKYASQSISGIPSRFSGSGSGSDFTLSINSVEPEDVGVYYCQNGHSFPLTFGAGTKLELKRTVAAPSVFIFPPSDEQLKSGTASVVCLLNNFYPREAKVQWKVDNALQSGNSQESVTEQDSKDSTYSLSSTLTLSKADYEKHKVYACEVTHQGLSSPVTKSFNRGEC
heavy: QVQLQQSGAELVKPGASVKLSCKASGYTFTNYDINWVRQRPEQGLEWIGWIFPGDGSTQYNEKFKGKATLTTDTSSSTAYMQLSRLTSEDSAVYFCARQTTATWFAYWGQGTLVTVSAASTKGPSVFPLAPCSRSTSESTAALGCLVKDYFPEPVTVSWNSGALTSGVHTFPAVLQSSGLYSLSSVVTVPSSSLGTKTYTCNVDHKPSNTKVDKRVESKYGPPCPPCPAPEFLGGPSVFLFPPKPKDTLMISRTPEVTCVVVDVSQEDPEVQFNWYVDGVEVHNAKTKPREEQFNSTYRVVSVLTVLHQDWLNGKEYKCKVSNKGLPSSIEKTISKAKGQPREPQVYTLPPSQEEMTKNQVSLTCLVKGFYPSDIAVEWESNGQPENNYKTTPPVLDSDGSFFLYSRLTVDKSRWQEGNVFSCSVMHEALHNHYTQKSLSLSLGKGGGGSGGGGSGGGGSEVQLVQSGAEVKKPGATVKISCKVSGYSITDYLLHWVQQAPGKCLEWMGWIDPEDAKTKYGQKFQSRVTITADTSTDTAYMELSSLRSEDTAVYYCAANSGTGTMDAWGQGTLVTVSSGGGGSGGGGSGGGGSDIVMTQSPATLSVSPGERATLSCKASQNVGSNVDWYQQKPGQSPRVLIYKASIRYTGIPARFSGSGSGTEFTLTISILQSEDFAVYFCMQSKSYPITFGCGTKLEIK
notes: also called antibody TB-A2
- EC50 (read off the curve) [3]: ~0.7 nM
- binding result [2]: binds

B6: TB-A1 (bispecific antibody, human IgG1, kappa)
light: DIVMTQSPATLSVTPGDRVSLSCRASQSISDYLHWYQQKSHESPRLLIKYASQSISGIPSRFSGSGSGSDFTLSINSVEPEDVGVYYCQNGHSFPLTFGAGTKLELKRTVAAPSVFIFPPSDEQLKSGTASVVCLLNNFYPREAKVQWKVDNALQSGNSQESVTEQDSKDSTYSLSSTLTLSKADYEKHKVYACEVTHQGLSSPVTKSFNRGEC
heavy: not shown
notes: also called antibody TB-A1
- Kd [4]: 22 nM
- koff [4]: 0.000894 s⁻¹
- kon [4]: 40700 M⁻¹ s⁻¹
- Kd [5]: 0.234 nM
- koff [5]: 5.22e-05 s⁻¹
- kon [5]: 223000 M⁻¹ s⁻¹

B7: TB-D1 (bispecific antibody, human IgG1, kappa)
light: DIVMTQSPATLSVTPGDRVSLSCRASQSISDYLHWYQQKSHESPRLLIKYASQSISGIPSRFSGSGSGSDFTLSINSVEPEDVGVYYCQNGHSFPLTFGAGTKLELKRTVAAPSVFIFPPSDEQLKSGTASVVCLLNNFYPREAKVQWKVDNALQSGNSQESVTEQDSKDSTYSLSSTLTLSKADYEKHKVYACEVTHQGLSSPVTKSFNRGEC
heavy: not shown
notes: also called antibody TB-D1
- Kd [4]: 9.45 nM
- koff [4]: 0.000311 s⁻¹
- kon [4]: 33000 M⁻¹ s⁻¹
- EC50 (read off the curve) [3]: ~0.2 µg/mL
- Kd [5]: 1.35 nM
- koff [5]: 0.000531 s⁻¹
- kon [5]: 394000 M⁻¹ s⁻¹

B8: TB-B (bispecific antibody, human IgG1, kappa)
light: DIVMTQSPATLSVTPGDRVSLSCRASQSISDYLHWYQQKSHESPRLLIKYASQSISGIPSRFSGSGSGSDFTLSINSVEPEDVGVYYCQNGHSFPLTFGAGTKLELKRTVAAPSVFIFPPSDEQLKSGTASVVCLLNNFYPREAKVQWKVDNALQSGNSQESVTEQDSKDSTYSLSSTLTLSKADYEKHKVYACEVTHQGLSSPVTKSFNRGEC
heavy: not shown
notes: also called antibody TB-B
- EC50 (read off the curve) [3]: ~0.2 µg/mL
- binding result [2]: binds

Next, values leading:

- E1 Mean FITC-A [1]: 248000
B1: TC-F2 (bispecific antibody, human IgG1, kappa)
light: EVQLVQSGAEVKKPGATVKISCKVSGYSITDYLLHWVQQAPGKCLEWMGWIDPEDAKTKYGQKFQSRVTITADTSTDTAYMELSSLRSEDTAVYYCAANSGTGTMDAWGQGTLVTVSSGGGGSGGGGSGGGGSDIVMTQSPATLSVSPGERATLSCKASQNVGSNVDWYQQKPGQSPRVLIYKASIRYTGIPARFSGSGSGTEFTLTISILQSEDFAVYFCMQSKSYPITFGCGTKLEIKGGGGSGGGGSGGGGSEIVMTQSPPTLSLSPGERVTLSCKSSQSLLNSGNQKNYLTWYQQKPGQAPRLLIYWASTRESSIPARFSGSGSGTDFTLTISSLQPEDFAVYYCQNNYIYPLTFGGGTKLELKRTVAAPSVFIFPPSDEQLKSGTASVVCLLNNFYPREAKVQWKVDNALQSGNSQESVTEQDSKDSTYSLSSTLTLSKADYEKHKVYACEVTHQGLSSPVTKSFNRGEC
heavy: not shown

- binding result [2]: binds
B2: TB-E (bispecific antibody, human IgG1, kappa)
light: DIVMTQSPATLSVTPGDRVSLSCRASQSISDYLHWYQQKSHESPRLLIKYASQSISGIPSRFSGSGSGSDFTLSINSVEPEDVGVYYCQNGHSFPLTFGAGTKLELKRTVAAPSVFIFPPSDEQLKSGTASVVCLLNNFYPREAKVQWKVDNALQSGNSQESVTEQDSKDSTYSLSSTLTLSKADYEKHKVYACEVTHQGLSSPVTKSFNRGECGGGGSGGGGSEVQLVQSGAEVKKPGATVKISCKVSGYSITDYLLHWVQQAPGKCLEWMGWIDPEDAKTKYGQKFQSRVTITADTSTDTAYMELSSLRSEDTAVYYCAANSGTGTMDAWGQGTLVTVSSGGGGSGGGGSGGGGSDIVMTQSPATLSVSPGERATLSCKASQNVGSNVDWYQQKPGQSPRVLIYKASIRYTGIPARFSGSGSGTEFTLTISILQSEDFAVYFCMQSKSYPITFGCGTKLEIK
heavy: not shown
notes: also called antibody TB-E

- E1 Mean FITC-A [1]: 217000
B3: TC-A2 (bispecific antibody, human IgG1, kappa)
light: EIVMTQSPPTLSLSPGERVTLSCKSSQSLLNSGNQKNYLTWYQQKPGQAPRLLIYWASTRESSIPARFSGSGSGTDFTLTISSLQPEDFAVYYCQNNYIYPLTFGGGTKLELKRTVAAPSVFIFPPSDEQLKSGTASVVCLLNNFYPREAKVQWKVDNALQSGNSQESVTEQDSKDSTYSLSSTLTLSKADYEKHKVYACEVTHQGLSSPVTKSFNRGEC
heavy: not shown

- E1 Mean FITC-A [1]: 260000
B4: TC-E2 (bispecific antibody, human IgG1, kappa)
light: EIVMTQSPPTLSLSPGERVTLSCKSSQSLLNSGNQKNYLTWYQQKPGQAPRLLIYWASTRESSIPARFSGSGSGTDFTLTISSLQPEDFAVYYCQNNYIYPLTFGGGTKLELKRTVAAPSVFIFPPSDEQLKSGTASVVCLLNNFYPREAKVQWKVDNALQSGNSQESVTEQDSKDSTYSLSSTLTLSKADYEKHKVYACEVTHQGLSSPVTKSFNRGECGGGGSGGGGSEVQLVQSGAEVKKPGATVKISCKVSGYSITDYLLHWVQQAPGKCLEWMGWIDPEDAKTKYGQKFQSRVTITADTSTDTAYMELSSLRSEDTAVYYCAANSGTGTMDAWGQGTLVTVSSGGGGSGGGGSGGGGSDIVMTQSPATLSVSPGERATLSCKASQNVGSNVDWYQQKPGQSPRVLIYKASIRYTGIPARFSGSGSGTEFTLTISILQSEDFAVYFCMQSKSYPITFGCGTKLEIK
heavy: not shown

From patent publication US20260055188A1 (SHENGHE CHINA BIOPHARMACEUTICAL, published 2026)
